In patent US20030166014A1 (CURATORS OF THE UNIVERSITY OF MISSOURI, published 2003):

Experiments:
[1] = molecular target: T1, Lotus tetragonolobus lectin (LTL) (Lotus tetragonolobus, UniProt P19664 1-240); test: lectin ELISA; slope of absorbance at 405 nm against ng Hp
T1 construct: Used at 2 µg/ml in the lectin ELISA
T1 sequence (looked up): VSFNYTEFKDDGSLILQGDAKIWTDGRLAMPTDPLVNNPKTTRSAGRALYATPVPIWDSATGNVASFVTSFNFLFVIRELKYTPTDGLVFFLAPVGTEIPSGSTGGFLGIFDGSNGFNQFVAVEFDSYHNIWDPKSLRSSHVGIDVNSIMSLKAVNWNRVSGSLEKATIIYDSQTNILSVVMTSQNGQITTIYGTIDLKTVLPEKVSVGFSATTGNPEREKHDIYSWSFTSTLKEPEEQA

[2] = molecular target: T2, Maackia amurensis lectin (MAL) (Maackia amurensis); test: as above
T2 construct: Used at 10 µg/ml in the lectin ELISA
T2 sequence (P0DKL3 30-278): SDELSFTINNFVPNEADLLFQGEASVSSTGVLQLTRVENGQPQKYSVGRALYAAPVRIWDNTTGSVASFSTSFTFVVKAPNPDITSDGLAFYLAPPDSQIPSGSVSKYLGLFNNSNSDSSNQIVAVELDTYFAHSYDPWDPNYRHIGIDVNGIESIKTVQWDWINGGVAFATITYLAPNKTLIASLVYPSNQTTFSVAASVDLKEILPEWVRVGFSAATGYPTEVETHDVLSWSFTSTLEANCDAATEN

fold binding relative to sHp [1]: 11 times (vs sHp) | fold binding relative to sHp [2]: 10 times (vs sHp)
B1: endometriosis-associated peritoneal endometriotic haptoglobin (pHp) (other, human)
chain 1: VDSGNDVTDIADDGCPKPPEIAHGYVEHSVRYQCKNYYKLRTEGDGVYTLNDKKQWINKAVGDKLPECEADDGCPKPPEIAHGYVEHSVRYQCKNYYKLRTEGDGVYTLNNEKQWINKAVGDKLPECEAVCGKPKNPANPVQ
chain 2: ILGGHLDAKGSFPWQAKMVSHHNLTTGATLINEQWLLTTAKNLFLNHSENATAKDIAPTLTLYVGKKQLVEIEKVVLHPNYSQVDIGLIKLKQKVSVNERVMPICLPSKDYAEVGRVGYVSGWGRNANFKFTDHLKYVMLPVADQDQCIRHYEGSTVPEKKTPKSPVGVQPILNEHTFCAGMSKYQEDTCYGDAGSAFAVHDLEEDTWYATGILSFDKSCAVAEYGVYVKVTSIQDWVQKTIAEN
modifications: N-glycosylated; 3 kDa less carbohydrate than sHp beta-chain; more alpha(2-3) sialic acid and fucose than sHp
notes: domain: α-subunit;domain: β-subunit; also called peritoneal endometriotic Hp
